The values below come from patent US20170320966A1 (INDUSTRIAL TECHNOLOGY RESEARCH INSTITUTE, published 2017).

Changes are numbered by the printed parent chain.

The target in experiment [1] is T1, human CD34 protein (Fc tag) (human, UniProt P28906 32-290).
T1 construct: Bought reagent (Sino Biological); also called recombinant human CD34 protein; immobilized human CD34 protein; not shown: Fc tag
T1 sequence (looked up): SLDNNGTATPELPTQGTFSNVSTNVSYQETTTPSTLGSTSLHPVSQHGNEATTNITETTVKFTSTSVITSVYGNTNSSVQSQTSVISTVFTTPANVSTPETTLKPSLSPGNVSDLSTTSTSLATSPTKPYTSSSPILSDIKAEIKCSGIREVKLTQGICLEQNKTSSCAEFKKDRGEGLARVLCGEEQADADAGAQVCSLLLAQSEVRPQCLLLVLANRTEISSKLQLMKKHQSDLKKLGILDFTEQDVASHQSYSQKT
The experiment can be described thus: SPR (Biacore X), CD34-Fc immobilized on chip, antibody injected, bivalent fit. As for the experimental part:
(§1) FIGS. 8A and 8B show the surface plasma resonance (SPR) analysis of interaction between human CD34 protein and chimeric QBEND/10 (A) or humanized QBEND/10 (B). Each antibody was injected and flowed over a surface chip with immobilized human CD34 protein at a flow rate of 30 μl/min. The resulting SPR sensorgrams were analyzed to determine the association/dissociation rate constants using the analysis program (BIAevaluation 3.2) provided by the manufacturer.
(§2) The binding kinetics of QBEND/10 antibodies to the human CD34 protein (Fc tag) (Sino Biological Incorporation, Beijing, China) were measured by performing the Biacore system (Biacore X, GE Healthcare, South Logan, Utah, USA) in the electrophoresis running buffer HBS-EP (10 mM HEPES, pH 7.4; 150 mM NaCl; 3 mM EDTA; 0.005% surfactant P20). In Brief, human CD34 protein was immobilized onto a CMS sensor chip via amine coupling to a level of 1200 response units (RU), and purified antibodies with different concentrations were injected at a flow rate of 30 μl/min. The surface was regenerated by injection of 15 μl of 10 mM glycine-HCl, pH 2.5. Then, the sensorgrams obtained at each concentration were evaluated by the program BIA Evaluation 3.2 (GE Healthcare, South Logan, Utah, USA). The binding data were fitted with a 2:1 (bivalent) binding model to calculate the affinity constant KD, which was defined as the ratio of dissociation rate (koff)/association rate (kₒₙ).

Experiment [2] has as its target T1, human CD34 protein (Fc tag). The experiment can be described thus: SPR (Biacore X), CD34-Fc immobilized on chip. As for the experimental part:
as §1
as §2, with “The binding data were fitted with a 2:1 (bivalent) binding model to calculate the affinity constant KD, which was defined as the ratio of dissociation rate (koff)/association rate (kₒₙ).” left out
On the technique in general: SPR reads the build-up and loss of mass on a sensor chip optically.

B1: chimeric QBEND/10 (antibody, V domains shown)
VH: QVQLEQSGPELVKPGASVKMSCKASGYTFTSYVIHWVKQKPGQGLEWLGYTNPYNDVTKYNEKFKFKATLTSDKQSTTAYMEFSSLTSEDSAVYYCARYGGLWLYAMDYWGQGTSVTVSS
VL: QLVLTQSSSASFSLGASAKLTCTLSSQHRTFTIEWYQQQPLKPPKYVMELRKDGSHSTGDGIPDRFSGSSSGADRYLSISNIQPEDEAIYICGVGNTIKEQFVYVFGGGTKVTVL
notes: Expressed in NS0 cells; also called chimeric QBEND/10 antibody; parental antibody
As a reminder, the koff is the rate constant with which the complex falls apart. As usually defined, the kon is the rate constant with which the complex forms. For B1, in experiment [1], the Kd amounted to 14.7 nM, the off-rate constant (koff) was 0.000262 s⁻¹ and the association rate constant (kon) came to 17800 M⁻¹ s⁻¹.

B2: humanized QBEND/10 (antibody, V domains shown)
VH: B1 VH with E5V, P9A, K74T, Q75S
VL: B1 VL with S8P, L41E, T58K, N81S, G108T
notes: Expressed in NS0 cells; also called resurfaced QBEND/10; humanized QBEND/10 antibody
Consider B2, for which the “fold increase of kon against chimeric QBEND/10” value in experiment [2] came out at 2 fold. In experiment [1], this molecule registered a Kd of 7.34 nM, a koff of 0.000268 s⁻¹ and a kon of 36600 M⁻¹ s⁻¹.
